Reference: US20220105122A1 (UNIVERSITY OF TOKYO, published 2022)

T1: human HVEM (Herpes Virus entry mediator) expressed on HEK293T cells (human, UniProt Q92956 39-283)
T1 construct: whole, on cells; In the cell ELISA the HVEM-introduced HEK293T cells were fixed with 4% paraformaldehyde; in the reporter assay live HVEM-expressing HEK293T cells were used; also called TNFRSF14; HVEM/TNFRSF14
T1 sequence (looked up): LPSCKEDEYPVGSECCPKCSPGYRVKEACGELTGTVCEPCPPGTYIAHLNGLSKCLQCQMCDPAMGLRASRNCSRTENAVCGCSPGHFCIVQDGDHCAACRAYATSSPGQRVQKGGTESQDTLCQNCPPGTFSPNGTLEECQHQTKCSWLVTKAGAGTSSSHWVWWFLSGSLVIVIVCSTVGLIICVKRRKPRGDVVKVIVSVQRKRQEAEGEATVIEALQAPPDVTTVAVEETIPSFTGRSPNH

B1: anti-human HVEM alpaca VHH antibody #1 (VHH)
VHH: QVQLVESGGGLVQPGGSLRLSCAASGFTFSTHAMSWYRQAPGKERELVAHISSTGGSTNYADSVKGRFTISRDNAKNTVYLQMNSLKPEDTAVYRCNARDWYEYWGRGTQVTVSS
notes: Tested as VHH with a 6xHis tag; also called VHH #1; not shown: 6xHis tag added for the assay
B2: anti-human HVEM alpaca VHH antibody #4 (VHH)
VHH: QVQLVESGGGLVQPGGSLRLSCAAAESMLSPYSMGWYRLPPGKQRELVASLGSGGRTTYADSVKGRFTISRDNAKNTAYLQMNSLKPEDTAVYRCNIRELLGRRYEYWSQGTQVTVSS
notes: Tested as VHH with a 6xHis tag; also called VHH #4; not shown: 6xHis tag added for the assay
B3: anti-human HVEM alpaca VHH antibody #3 (VHH)
VHH: QVQLVESGGGSVQPGGSLRLSCAASGSIGSIHRWDWYRLCPGKQREWVATLNSEGGPTYADSVEGRFTISRDNAKNMVYLQMNSLKPEDTAVYRCSARTVPFEYWGRGTQVTVSS
notes: Tested as VHH with a 6xHis tag; also called VHH #3; VHH(I); not shown: 6xHis tag added for the assay
B4: anti-human HVEM alpaca VHH antibody #2 (VHH)
VHH: QVQLVESGGGLVQPGGSLRLSCVASGRLFDTYTMAWYRLPPGKQRELVADISRTGFTNYADSVKGRFTISRDNAKNTVYLQMNSLKPDDTAHYRCKVREPATMYEYWGQGTQVTVSS
notes: Tested as VHH with a 6xHis tag; also called VHH #2; VHH(II); not shown: 6xHis tag added for the assay
B5: anti-human HVEM alpaca VHH antibody #5 (VHH)
VHH: QVQLVESGGGLVQPGGSLRLSCAASGFTFSSSHMTWVRQAPGKGLEWVSLINSSGRTAYVDSVAGRFTISRDNAKNTLYLQMTNLKPEDTAVYYCSKGGWDGLPSSSIRGQGTQVTVSS
notes: Tested as VHH with a 6xHis tag; also called VHH #5; not shown: 6xHis tag added for the assay

These binders were tested against T1, human HVEM (Herpes Virus entry …) (assay: cell ELISA on fixed HVEM-expressing HEK293T cells, His-tagged VHH detected with anti-His-tag mAb-HRP).
Text: The VHH antibodies prepared in the above item (1) were used to measure whether the VHH antibodies were detected in HVEM on the surface of the HVEM-expressing HEK293T cell membrane. Specifically, the HEK293T cells introduced with HVEM and the HEK293T cells not expressing HVEM as a negative control were each seeded at 1×10⁴ cells/well, fixed with 4% paraformaldehyde, and then reacted with the VHH antibodies added with 6×His tag. The horseradish peroxidase HRP-labeled anti-histidine tag antibody anti-His-tag mAb-HRP-DirecT (MBL) was reacted, and ELISA POD Substrate TMB Kit (Nacalai Tesque, Inc.) was used to measure an enzyme reaction of HRP with the substrate. The effect size data obtained for the antibody concentration was subjected to non-linear regression to a sigmoid curve based on the following formula: […]

Row | EC50 | Binder
1 | < 80 nM | B1
2 | < 80 nM | B2
3 | < 80 nM | B3
4 | < 80 nM | B4
5 | < 80 nM | B5
